Experimental data reported in patent US20250145729A1 (DENALI THERAPEUTICS, published 2025).

T1: human CD98hc (human, UniProt P08195 109-529)
T1 construct: also called huCD98hc; CD98 heavy chain
T1 sequence: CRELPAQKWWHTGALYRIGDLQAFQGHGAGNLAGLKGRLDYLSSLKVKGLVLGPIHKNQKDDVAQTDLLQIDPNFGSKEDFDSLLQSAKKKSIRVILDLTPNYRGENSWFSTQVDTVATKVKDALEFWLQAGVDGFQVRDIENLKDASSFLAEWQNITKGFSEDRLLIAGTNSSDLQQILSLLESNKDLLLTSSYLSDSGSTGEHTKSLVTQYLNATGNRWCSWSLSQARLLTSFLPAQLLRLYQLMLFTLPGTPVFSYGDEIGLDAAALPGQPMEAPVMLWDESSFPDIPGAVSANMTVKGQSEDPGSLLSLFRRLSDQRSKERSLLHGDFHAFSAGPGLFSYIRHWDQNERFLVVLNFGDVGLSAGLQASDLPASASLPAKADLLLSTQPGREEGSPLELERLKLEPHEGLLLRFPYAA

T2: circularly permuted cyno TfR apical domain (cynomolgus monkey)
T2 construct: same design as the human construct; also called cyTfR Apical Domain; cynomolgus TfR apical domain
T2 chain: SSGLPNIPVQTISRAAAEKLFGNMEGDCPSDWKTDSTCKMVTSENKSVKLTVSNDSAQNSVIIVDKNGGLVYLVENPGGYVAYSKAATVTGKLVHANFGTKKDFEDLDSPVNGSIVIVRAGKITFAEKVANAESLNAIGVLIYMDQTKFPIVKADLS

T3: circularly permuted human TfR apical domain (human)
T3 construct: TfR residues 326-379 stand N-terminal to 194-296, loop 297-325 deleted; also called huTfR Apical Domain
T3 chain: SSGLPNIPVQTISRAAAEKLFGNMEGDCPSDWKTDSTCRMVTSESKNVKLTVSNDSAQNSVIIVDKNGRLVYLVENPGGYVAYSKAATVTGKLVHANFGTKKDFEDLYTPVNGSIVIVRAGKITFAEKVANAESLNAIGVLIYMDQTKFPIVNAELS


What was measured:
human CD98hc = target: T1, human CD98hc; test: SPR (Biacore)
Procedure, shortened: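 Binding affinity (Kd) of the engineered Fc polypeptides for CD98hc was measured by surface plasmon resonance on a Biacore instrument. Clones were cloned, expressed and purified as Fc-Fab fusions carrying anti-BACE1 Fabs. They were tested in a bivalent format or in a monovalent knob/hole format with the CD98hc-binding site on the knob chain only. The text gives no concentrations, temperature, buffer or replicate numbers.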

[1] = target: T2, circularly permuted cyno TfR apical …; test: SPR, supernatant, anti-Fab capture
Experimental: (§1) Clones were expressed in HEK293 cells. Supernatants were captured for SPR by GE Healthcare anti-human Fab capture kit and the affinity to human and cyno TfR apical domain was measured (Table 30). The clones in Table 30 were bivalent and each TfR-binding Fc polypeptide also contained P329G and LALA mutations.

[2] = target: T3, circularly permuted human TfR apical …; test: SPR, supernatant, anti-Fab capture
Experimental: as §1

| Kd (human CD98hc) | Kd [1] | Kd [2] | Binder |
| --- | --- | --- | --- |
| 1300 nM | – | – | LLB2-2 (Fc fusion, Fc part only) APELLGGPSVFLFPPKPKDTLMISRTPEVTCVVVDVSHEDPEVKFNWYVDGVEVHNAKTKPREEQYNSTYRVVSVLTVLHQDWLNGKEYKCKVSNKALPAPIEKTISKAKGQPREPQVYTLPPSRDELTKNQVSLTCLVKGFYPSDIAVIWNSRFSLENNYKTTPPVLDSDGSFFLYSKLTVDKSRWQQGNIFACNVLHEALHNHYTFKNLSLSPGK |
| 1900 nM | – | – | LLB2-5 (Fc fusion, Fc part only) APELLGGPSVFLFPPKPKDTLMISRTPEVTCVVVDVSHEDPEVKFNWYVDGVEVHNAKTKPREEQYNSTYRVVSVLTVLHQDWLNGKEYKCKVSNKALPAPIEKTISKAKGQPREPQVYTLPPSRDELTKNQVSLTCLVKGFYPSDIAVLWNSKFSLENNYKTTPPVLDSDGSFFLYSKLTVDKSRWQQGNIFACNVLHEALHNHYTFKNLSLSPGK |
| 1700 nM | – | – | LLB2-4 (Fc fusion, Fc part only) APELLGGPSVFLFPPKPKDTLMISRTPEVTCVVVDVSHEDPEVKFNWYVDGVEVHNAKTKPREEQYNSTYRVVSVLTVLHQDWLNGKEYKCKVSNKALPAPIEKTISKAKGQPREPQVYTLPPSRDELTKNQVSLTCLVKGFYPSDIAVLWSSRFSLENNYKTTPPVLDSDGSFFLYSKLTVDKSRWQQGNIFACNVLHEALHNHYTFKNLSLSPGK |
| 3600 nM | – | – | LLB2-7 (Fc fusion, Fc part only) APELLGGPSVFLFPPKPKDTLMISRTPEVTCVVVDVSHEDPEVKFNWYVDGVEVHNAKTKPREEQYNSTYRVVSVLTVLHQDWLNGKEYKCKVSNKALPAPIEKTISKAKGQPREPQVYTLPPSRDELTKNQVSLTCLVKGFYPSDIAVLWNSRYSLENNYKTTPPVLDSDGSFFLYSKLTVDKSRWQQGNIFACNVLHEALHNHYTFKNLSLSPGK |
| 1200 nM | – | – | LLB2-3 (Fc fusion, Fc part only) APELLGGPSVFLFPPKPKDTLMISRTPEVTCVVVDVSHEDPEVKFNWYVDGVEVHNAKTKPREEQYNSTYRVVSVLTVLHQDWLNGKEYKCKVSNKALPAPIEKTISKAKGQPREPQVYTLPPSRDELTKNQVSLTCLVKGFYPSDIAVMWNSRFSLENNYKTTPPVLDSDGSFFLYSKLTVDKSRWQQGNIFACNVLHEALHNHYTFKNLSLSPGK |
| – | 9780 nM | 1310 nM | 42.8.190 (Fc fusion, bivalent; P329G+LALA) APEAAGGPSVFLFPPKPKDTLMISRTPEVTCVVVDVSHEDPEVKFNWYVDGVEVHNAKTKPREEQYNSTYRVVSVLTVLHQDWLNGKEYKCKVSNKALGAPIEKTISKAKGQPREPQVYTLPPSRDELTKNQVSLTCLVKGFYPSDIAVEWFYEGSKLNNYKTTPPVLDSDGSFFLYSKLTVDKSRWQQGNLFACEVMHEALHNHYTYKLLSLSPGK |
| – | 5460 nM | 394 nM | 42.8.203 (Fc fusion, bivalent; P329G+LALA) APEAAGGPSVFLFPPKPKDTLMISRTPEVTCVVVDVSHEDPEVKFNWYVDGVEVHNAKTKPREEQYNSTYRVVSVLTVLHQDWLNGKEYKCKVSNKALGAPIEKTISKAKGQPREPQVYTLPPSRDELTKNQVSLTCLVKGFYPSDIAVEWFYEASKLTNYKTTPPVLDSDGSFFLYSKLTVDKSRWQQGNLFACEVMHEALHNHYTYKLLSLSPGK |
| – | 11400 nM | 1130 nM | 42.8.205 (Fc fusion, bivalent; P329G+LALA) APEAAGGPSVFLFPPKPKDTLMISRTPEVTCVVVDVSHEDPEVKFNWYVDGVEVHNAKTKPREEQYNSTYRVVSVLTVLHQDWLNGKEYKCKVSNKALGAPIEKTISKAKGQPREPQVYTLPPSRDELTKNQVSLTCLVKGFYPSDIAVEWFYEDQKENNYKTTPPVLDSDGSFFLYSKLTVDKSRWQQGNLFACEVMHEALHNHYTYKLLSLSPGK |
| – | 10700 nM | 966 nM | 42.8.211 (Fc fusion, bivalent; P329G+LALA) APEAAGGPSVFLFPPKPKDTLMISRTPEVTCVVVDVSHEDPEVKFNWYVDGVEVHNAKTKPREEQYNSTYRVVSVLTVLHQDWLNGKEYKCKVSNKALGAPIEKTISKAKGQPREPQVYTLPPSRDELTKNQVSLTCLVKGFYPSDIAVEWFYEDSKENNYKTTPPVLDSDGSFFLYSKLTVDKSRWQQGNLFACEVMHEALHNHYTYKLLSLSPGK |
| – | 12200 nM | 841 nM | 42.8.198 (Fc fusion, bivalent; P329G+LALA) APEAAGGPSVFLFPPKPKDTLMISRTPEVTCVVVDVSHEDPEVKFNWYVDGVEVHNAKTKPREEQYNSTYRVVSVLTVLHQDWLNGKEYKCKVSNKALGAPIEKTISKAKGQPREPQVYTLPPSRDELTKNQVSLTCLVKGFYPSDIAVEWFYEAQKLSNYKTTPPVLDSDGSFFLYSKLTVDKSRWQQGNLFACEVMHEALHNHYTYKLLSLSPGK |
| – | 8140 nM | 598 nM | 42.8.191 (Fc fusion, bivalent; P329G+LALA) APEAAGGPSVFLFPPKPKDTLMISRTPEVTCVVVDVSHEDPEVKFNWYVDGVEVHNAKTKPREEQYNSTYRVVSVLTVLHQDWLNGKEYKCKVSNKALGAPIEKTISKAKGQPREPQVYTLPPSRDELTKNQVSLTCLVKGFYPSDIAVEWFYEGSKLTNYKTTPPVLDSDGSFFLYSKLTVDKSRWQQGNLFACEVMHEALHNHYTYKLLSLSPGK |
| – | 10800 nM | 827 nM | 42.8.206 (Fc fusion, bivalent; P329G+LALA) APEAAGGPSVFLFPPKPKDTLMISRTPEVTCVVVDVSHEDPEVKFNWYVDGVEVHNAKTKPREEQYNSTYRVVSVLTVLHQDWLNGKEYKCKVSNKALGAPIEKTISKAKGQPREPQVYTLPPSRDELTKNQVSLTCLVKGFYPSDIAVEWFYEDQKETNYKTTPPVLDSDGSFFLYSKLTVDKSRWQQGNLFACEVMHEALHNHYTYKLLSLSPGK |
| – | 6090 nM | 427 nM | 42.8.214 (Fc fusion, bivalent; P329G+LALA) APEAAGGPSVFLFPPKPKDTLMISRTPEVTCVVVDVSHEDPEVKFNWYVDGVEVHNAKTKPREEQYNSTYRVVSVLTVLHQDWLNGKEYKCKVSNKALGAPIEKTISKAKGQPREPQVYTLPPSRDELTKNQVSLTCLVKGFYPSDIAVEWFYEDSKLNNYKTTPPVLDSDGSFFLYSKLTVDKSRWQQGNLFACEVMHEALHNHYTYKLLSLSPGK |
| – | 6210 nM | 505 nM | 42.8.200 (Fc fusion, bivalent; P329G+LALA) APEAAGGPSVFLFPPKPKDTLMISRTPEVTCVVVDVSHEDPEVKFNWYVDGVEVHNAKTKPREEQYNSTYRVVSVLTVLHQDWLNGKEYKCKVSNKALGAPIEKTISKAKGQPREPQVYTLPPSRDELTKNQVSLTCLVKGFYPSDIAVEWFYEASKETNYKTTPPVLDSDGSFFLYSKLTVDKSRWQQGNLFACEVMHEALHNHYTYKLLSLSPGK |
| – | 9340 nM | 924 nM | 42.8.196 (Fc fusion, bivalent; P329G+LALA) APEAAGGPSVFLFPPKPKDTLMISRTPEVTCVVVDVSHEDPEVKFNWYVDGVEVHNAKTKPREEQYNSTYRVVSVLTVLHQDWLNGKEYKCKVSNKALGAPIEKTISKAKGQPREPQVYTLPPSRDELTKNQVSLTCLVKGFYPSDIAVEWFYEAQKLNNYKTTPPVLDSDGSFFLYSKLTVDKSRWQQGNLFACEVMHEALHNHYTYKLLSLSPGK |
| – | 13300 nM | 1600 nM | 42.8.193 (Fc fusion, bivalent; P329G+LALA) APEAAGGPSVFLFPPKPKDTLMISRTPEVTCVVVDVSHEDPEVKFNWYVDGVEVHNAKTKPREEQYNSTYRVVSVLTVLHQDWLNGKEYKCKVSNKALGAPIEKTISKAKGQPREPQVYTLPPSRDELTKNQVSLTCLVKGFYPSDIAVEWFYEAQKENNYKTTPPVLDSDGSFFLYSKLTVDKSRWQQGNLFACEVMHEALHNHYTYKLLSLSPGK |
| – | 6030 nM | 380 nM | 42.8.209 (Fc fusion, bivalent; P329G+LALA) APEAAGGPSVFLFPPKPKDTLMISRTPEVTCVVVDVSHEDPEVKFNWYVDGVEVHNAKTKPREEQYNSTYRVVSVLTVLHQDWLNGKEYKCKVSNKALGAPIEKTISKAKGQPREPQVYTLPPSRDELTKNQVSLTCLVKGFYPSDIAVEWFYEDQKLTNYKTTPPVLDSDGSFFLYSKLTVDKSRWQQGNLFACEVMHEALHNHYTYKLLSLSPGK |
| – | 4940 nM | 293 nM | 42.8.215 (Fc fusion, bivalent; P329G+LALA) APEAAGGPSVFLFPPKPKDTLMISRTPEVTCVVVDVSHEDPEVKFNWYVDGVEVHNAKTKPREEQYNSTYRVVSVLTVLHQDWLNGKEYKCKVSNKALGAPIEKTISKAKGQPREPQVYTLPPSRDELTKNQVSLTCLVKGFYPSDIAVEWFYEDSKLTNYKTTPPVLDSDGSFFLYSKLTVDKSRWQQGNLFACEVMHEALHNHYTYKLLSLSPGK |
